Measurements as given in PMC4386032.

Biological target: F-actin (source not stated for this experiment: rabbit muscle or yeast) (not stated (rabbit muscle or yeast actin purified)) (UniProt P68135)

Vps1 (yeast dynamin), wild type, recombinant His tag fusion, sequence (P21576 whole entry, the tested form may be a part): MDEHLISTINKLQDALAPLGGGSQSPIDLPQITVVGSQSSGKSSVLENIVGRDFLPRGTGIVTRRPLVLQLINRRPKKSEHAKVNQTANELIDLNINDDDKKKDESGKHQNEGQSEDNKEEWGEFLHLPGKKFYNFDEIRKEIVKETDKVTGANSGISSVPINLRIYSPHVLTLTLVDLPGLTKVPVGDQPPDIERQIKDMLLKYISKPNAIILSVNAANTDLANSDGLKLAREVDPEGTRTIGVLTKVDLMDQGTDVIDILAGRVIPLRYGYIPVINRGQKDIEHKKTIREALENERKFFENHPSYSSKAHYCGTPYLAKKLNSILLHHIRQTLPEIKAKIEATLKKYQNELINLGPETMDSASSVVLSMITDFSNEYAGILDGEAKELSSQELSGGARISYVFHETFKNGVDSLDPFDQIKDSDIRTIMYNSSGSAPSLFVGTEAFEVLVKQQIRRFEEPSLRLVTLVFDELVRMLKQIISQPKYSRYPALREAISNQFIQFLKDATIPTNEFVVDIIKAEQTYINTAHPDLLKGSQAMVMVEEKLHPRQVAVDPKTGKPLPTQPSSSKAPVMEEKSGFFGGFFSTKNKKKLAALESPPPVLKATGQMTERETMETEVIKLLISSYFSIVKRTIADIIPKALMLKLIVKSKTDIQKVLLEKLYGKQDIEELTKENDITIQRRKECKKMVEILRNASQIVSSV

Row | Substance | EM: proportion of Vps1 structures that are double rings after incubation with actin | EM: proportion of actin in bundles of three or more filaments in the presence of Vps1 | EM: proportion of actin in bundles of two or more filaments in the presence of Vps1 (23% without) | EM: proportion of actin filaments in bundles of three or more in the presence of Vps1 RR-EE
1 | Vps1 (yeast dynamin), wild type, recombinant His tag fusion (from UniProt P21576 1-704) (natural protein) | 55% | 58% | > 80% | –
2 | Vps1 RR457,458EE, recombinant His tag fusion (from UniProt P21576 1-704) (natural protein) | – | – | – | 8%
